Measurements published in publication PMC8125178, “Fluorescence Correlation Spectroscopy Analysis of Effect of Molecular Crowding on Self-Assembly of β-Annulus Peptide into Artificial Viral Capsid” (International Journal of Molecular Sciences, 2021).

Assays:
BODIPY-β-annulus peptide [1] = molecular target: T1, BODIPY-β-annulus peptide (tomato bushy stunt virus, BODIPY-maleimide added by Michael addition to the thiol of the N-terminal Cys); assay: fluorescence correlation spectroscopy (FCS); 0.1 μM BODIPY-β-annulus peptide with 0~200 μM β-annulus peptide in 10 mM Tris-HCl buffer (pH 7.0), sonicated 10 min, incubated 30 min, 25 °C; ratio of the slow component fitted to the Hill equation; apparent Kd; details: both partners purified
T1 construct: also called BODIPY-labelled β-annulus peptide; fluorescent-labelled β-annulus peptide; source: synthetic peptide (solid-phase Fmoc chemistry; labelled with BODIPY-maleimide; purified by reversed-phase HPLC)
T1 peptide: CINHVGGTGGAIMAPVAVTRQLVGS

BODIPY-β-annulus peptide [2] = molecular target: T1, BODIPY-β-annulus peptide; assay: fluorescence correlation spectroscopy (FCS); 0.1 μM BODIPY-β-annulus peptide with 0~200 μM β-annulus peptide in 10 mM Tris-HCl buffer (pH 7.0) with 10 wt% PEG2000, 25 °C; ratio of the slow component fitted to the Hill equation; details: both partners purified
BODIPY-β-annulus peptide [3] = molecular target: T1, BODIPY-β-annulus peptide; assay: fluorescence correlation spectroscopy (FCS); 0.1 μM BODIPY-β-annulus peptide with 0~200 μM β-annulus peptide in 10 mM Tris-HCl buffer (pH 7.0), sonicated 10 min, incubated 30 min, 25 °C; ratio of the slow component fitted to the Hill equation; apparent Kd; details: both partners purified
BODIPY-β-annulus peptide [4] = molecular target: T1, BODIPY-β-annulus peptide; assay: fluorescence correlation spectroscopy (FCS); 0.1 μM BODIPY-β-annulus peptide with 0~200 μM β-annulus peptide in 10 mM Tris-HCl buffer (pH 7.0) with 5 wt% PEG2000, 25 °C; ratio of the slow component fitted to the Hill equation; details: both partners purified
BODIPY-β-annulus peptide [5] = molecular target: T1, BODIPY-β-annulus peptide; assay: fluorescence correlation spectroscopy (FCS); 0.1 μM BODIPY-β-annulus peptide with 0~200 μM β-annulus peptide in 10 mM Tris-HCl buffer (pH 7.0) with 15 wt% PEG2000, 25 °C; ratio of the slow component fitted to the Hill equation; details: both partners purified
[6] = molecular target: the molecule itself; assay: fluorescence correlation spectroscopy (FCS); 0.1 μM BODIPY-β-annulus peptide with 0~200 μM β-annulus peptide in 10 mM Tris-HCl buffer (pH 7.0) with 5 wt% PEG2000, 25 °C; ratio of the slow component fitted to the Hill equation
BODIPY-β-annulus peptide [7] = molecular target: T1, BODIPY-β-annulus peptide; assay: as above; details: both partners purified
BODIPY-β-annulus peptide [8] = molecular target: T1, BODIPY-β-annulus peptide; assay: fluorescence correlation spectroscopy (FCS); 0.1 μM BODIPY-β-annulus peptide with 0~200 μM β-annulus peptide in 10 mM Tris-HCl buffer (pH 7.0) with 20 wt% PEG2000, 25 °C; ratio of the slow component fitted to the Hill equation; details: both partners purified

B1: 24-mer β-annulus peptide from tomato bushy stunt virus (peptide)
peptide: INHVGGTGGAIMAPVAVTRQLVGS
notes: also called unmodified β-annulus peptide; source: synthetic peptide (solid-phase Fmoc chemistry, purified by reversed-phase HPLC)
With B1 the Kd (BODIPY-β-annulus peptide [1]) was 45.2 ± 10.6 µM, the Kd (BODIPY-β-annulus peptide [2]) was 6.69 ± 3.25 µM and the “ratio of the slow component at 200 μM β-annulus” value (BODIPY-β-annulus peptide [3]) was 62%. The Kd (BODIPY-β-annulus peptide [4]) was 14.4 ± 7.81 µM, the Kd (BODIPY-β-annulus peptide [5]) was 4.24 ± 3.22 µM and the binding result [6] was “binds”. The “ratio of the slow component at 200 μM β-annulus” value (BODIPY-β-annulus peptide [7]) was 76% and the Kd (BODIPY-β-annulus peptide [8]) was 5.66 ± 2.15 µM.
